# Experimental data published in the RNAGym collection of RNA variant scans (doi:10.1073/pnas.2313332121).
# B1: TPR t1 (parent)
# chain: GACCAAUCUGCCCUCAGAGCUCGAGAACAUCUUCGGAUGCAGAGGAGGCAGGCUUCGGUGGCGCGAUAGCGCCAACGUCCUCAACCUCCAAUGCAUCCCACCACAUGAUGAUGCCUGAAGAGCCUUGGUUUUUUG
# Variants of: B1
# Test: polymerase ribozyme fitness, log enrichment relative to wild type (log ratio); higher = more active; in vitro selection for triplet polymerase activity
# In short: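 In triplicate, a single round of in vitro selection was run on each mutant library, PCR-built and transcribed, covering one subunit of a heterodimeric triplet polymerase ribozyme. Frozen incubation at −7 °C followed annealing with a biotinylated primer, partner subunit and triplets, and extended constructs were then gel-excised, streptavidin-captured and taken through RT-PCR. Fitness is the logarithm of genotype enrichment over wild-type enrichment, from inverse-variance-weighted replicate averages of Illumina-sequenced inputs and outputs. […] only genotypes with ≥10 input reads and ≥1 read per output were kept.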
row,Variant,polymerase ribozyme fitness (log ratio)
1,U7A C114A,-1.29
2,U7A C114G,-2.07
3,U7A G69C C115A,0.0666
4,A6U U30C G39U C97U C104U,-4
5,U7A C80U C99U C124G,-2.39
6,U7A G48C,-0.566
7,A6U U96C C101U G122A,-0.932
8,U7A C79G,-1.03
9,A6U U112A,0.759
10,U7A C28G,-2.71
11,U7A A26U C49U C94G C123G,-4.09
12,U7A C22U G39A G44U C53U C56G G63C C124A U125A,-5.65
13,U7A C88G,-0.397
14,U7A G47A U96A,-1.96
15,U7A C89G A91U C97U C115U,-1.85
16,A6U G69U G113A,-0.642
17,U7A C64A A95C C101A C123U,-6.03
18,A6U U131A,0.0258
19,U7A C8A C40U C79G C102U G113C U129G U130A,-7.42
20,U7A U9C U78A G110U,-1.82
21,U7A A37U G71U A95G U96A,-0.194

row,Variant,polymerase ribozyme fitness (log ratio)
1,U7A U14A G44U,-2.04
2,U7A A26U,-2.56
3,U7A A41G,0.181
4,A6U G117U,-2.79
5,U7A U14A A37G G69A,-3.91
6,U7A C31U A111G,-4.76
7,U7A A74G C85G,-1.49
8,U7A C11A,-0.042
9,U7A A84C U116C,-0.218
10,U7A C12G A27C G122A U130C,-2.81
11,U7A C8G G45A U112A,1.66
12,U7A A66G C73G C124A,0.101
13,U7A G42A G60C,-2.37
14,U7A C64U,-0.637
15,U7A G71C G110C,-6.39
16,U7A C49U,0.388
17,U7A C49U C53U U59A C70U C76A,-2.44
18,U7A U55A U87C,0.229
19,U7A C86G A90C,-1.43
20,A6U U7C C102U G127C U131G,-2.65
21,A6U U106C G107A C114U,-5.44

row,Variant,polymerase ribozyme fitness (log ratio)
1,U7A A27U G61C G117U,-5.69
2,U7A C8G G45A,0.548
3,U7A G10A G52U C62G,-2.23
4,U7A A29G G63U C98U,-3.67
5,U7A C11G A37U G60U G93C,-0.83
6,U7A G69U C80U C99U C124G,0.126
7,U7A A16G U55G G61C C82U,-1.41
8,U7A C72U,-0.218
9,U7A G71A,-0.425
10,A6U G77U U78C C86U G107C U112G,-5.66
11,U7A G42U G58C G71U C88U G113A,-2.19
12,U7A A29G C64U C88A C104A,-1.32
13,A6U U54G C70A,-3.12
14,U7A G61A U112G,0.622
15,U7A G35A G71A G77C C124A,-5.19
16,U7A U21C C114A,-0.182
17,U7A C8A C11G G47U G57U C85A,-2.04
18,A6U U129A,-1.16
19,U7A G60A C64U C124A U133C,-1.69
20,U7A C13U G36A G69U,-0.408
21,U7A C124A,2.16

row,Variant,polymerase ribozyme fitness (log ratio)
1,A6U U7A A16C A46U C76A A84C A100C C124A,-5.09
2,U7A A16C G63A A121U,-0.146
3,U7A C64A U106C,-5.95
4,A6U G63A,-0.932
5,A6U G63C,-0.899
6,A6U U78C,0.144
7,U7A C94U A95U C123U G127U,-1.38
8,U7A C11G G44U A50G C94U U96A G117A,-1.92
9,U7A G39C U55C,-1.1
10,U7A,0.257
11,U7A U9G C70U C73U C79G A84G U96C,-4.92
12,U7A G17U A111C G135U,-3.91
13,U7A C73G C82G,-1.56
14,U7A G45A G58A U59C,-2.17
15,U7A G10A G52A C115U,-1.15
16,U7A C20G G25C C34G A43C G52A G113C,-7.56
17,U7A G44C C70G,-3.95
18,U7A G10C C72U,-0.8
19,U7A A29G A83C,-0.648
20,U7A G10A C28G C73A U109A A119G C123G,-5.03
21,U7A C72U A91C G122U,-2.12
